The record followed here is patent publication US20220153822A1 (ALYTAS THERAPEUTICS, published 2022).

The labels stand for the following.
T1: Perilipin epitope 6 peptide EVRVPWLHSLAAAQE (SEQ ID NO. 333) (human, Biotin-PEG Spacer and GGSGGS Linker (SEQ ID NO. 438) at the N-terminus, or Biotin-PEG Spacer and AAAAA Linker (SEQ ID NO. 439) at the C-terminus)
T1 construct: Two biotinylated variants were used for selection and ELISA; On the peptide array it stood without biotin; also called target peptide
T1 peptide: EVRVPWLHSLAAAQE

B1: Antibody No. 53 (antibody, V domains shown)
VH: QVQLVQSGGGVVQPGRSLRLSCAASGFTFSSYGMHWVRQAPGKGLEWVAVISYDGSNKYYADSVKGRFTISRDNSKNTLYLQMNSLRAEDTAVYYCAKDFSDAFDIWGQGTMVTVSS
VL: QSVLTQPPSVSAAPGQKVTISCSGSSSNIGNNYVSWYQQLPGTAPKLLIYDNNKRPSGIPDRFSGSKSGTSATLGITGLQTGDEADYYCGTWDSSLSAVVFGGGTKVTVL
notes: human IgG1, lambda or kappa light chain; also called 447-G07
B2: Antibody No. 54 (antibody, V domains shown)
VH: B1 VH with Q1E, V5L, Q6E, D99G, F100S, S101G, D102W, A103Y, I106Y, M112L
VL: not shown
notes: human IgG1, lambda or kappa light chain; also called 447-C12
B3: Antibody No. 40 (antibody, V domains shown)
VH: EVQLLESGGGLVKPGGSLRLSCAASGFTFSDYYMSWIRQAPGKGLEWVSYISSSSSYTNYADSVKGRFTISRDNAKNSLYLQMNSLRAEDTAVYYCARLSTVTRAFDIWGQGTMVTVSS
VL: DIQLTQSPSSVSASVGDRVTITCRASQGISSWLAWYQQKPGKAPKLLIYAASSLQSGVPSRFSGSGSGTDFTLTISSLQPEDFATYYCQQANSFPPTFGQGTKLEIK
notes: human IgG1, lambda or kappa light chain; also called 447-F11
B4: Antibody No. 52 (antibody, V domains shown)
VH: QVQLVQSGAEVKKPGASVKVSCKASGYTFTSYGISWVRQAPGQGLEWMGWISAYNGNTNYAQKLQGRVTMTTDTSTSTAYMELRSLRSDDTAVYYCASWGVVGGMDVWGQGTLVTVSS
VL: B3 VL with L4M, P96L, Q100G, L104V, E105D
notes: human IgG1, lambda or kappa light chain; also called 448-F05
B5: Antibody No. 57 (antibody, V domains shown)
VH: QVQLVESGAEVKKPGASVKVSCKASGYTFTSYYMHWVRQAPGQGLEWMGIINPSGGSTSYAQKFQGRVTMTRDTSTSTVYMELSSLRSEDTAVYYCARMTTSLGFDYWGQGTLVTVSS
VL: B3 VL with R18K, S31N, Q38L, I48V, S77N, F94L, P96L, Q100G, K103R
notes: human IgG1, lambda or kappa light chain; also called 447-H10
B6: Antibody No. 49 (antibody, V domains shown)
VH: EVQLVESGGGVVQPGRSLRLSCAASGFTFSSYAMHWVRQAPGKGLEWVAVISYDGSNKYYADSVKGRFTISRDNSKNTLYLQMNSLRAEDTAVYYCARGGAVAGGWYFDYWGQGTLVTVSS
VL: B3 VL with Q3V, L4M
notes: human IgG1, lambda or kappa light chain; also called 448-H04
B7: Antibody No. 23 (antibody, V domains shown)
VH: QVQLVQSGGGLVQPGRSLRLSCAASGFTFDDYAMHWVRQAPGKGLEWVSGISWNSGSIGYADSVKGRFTISRDNAKNSLYLQMNSLRAEDTALYYCAKDIAGGDYPVFDYWGQGTLVTVSS
VL: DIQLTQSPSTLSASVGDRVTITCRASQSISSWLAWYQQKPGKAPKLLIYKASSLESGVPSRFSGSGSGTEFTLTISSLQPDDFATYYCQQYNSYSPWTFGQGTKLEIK
notes: human IgG1, lambda or kappa light chain; also called 435-B08
B8: Antibody No. 46 (antibody, V domains shown)
VH: QVQLVQSGGGVVQPGRSLRLSCAASGFTFSSYAMHWVRQAPGKGLEWVAVISYDGSNKYYADSVKGRFTISRDNSKNTLYLQMNSLRAEDTAVYYCARDQYDILTGYGGTALDYWGQGTLVTVSS
VL: QSALTQPPSASGSPGQSVTISCTGTSSDVGGYNYVSWYQQHPGEAPKLMIYEVSKRPSGVPDRFSGSKSGNTASLTVSGLQAEDEADYYCSSYAGSNNLVFGGGTKLTVL
notes: human IgG1, lambda or kappa light chain; also called 447-B07
B9: Antibody No. 41 (antibody, V domains shown)
VH: QVQLVQSGGGVVQPGRSQRLSCAASGFTFSNAWMSWVRQAPGKGLEWVSAISGSGGSTYYADSVKGRFTISRDNSKNTLYLQMNSLRAEDTAVYYCAANEGGDAFDIWGQGTMVTVSS
VL: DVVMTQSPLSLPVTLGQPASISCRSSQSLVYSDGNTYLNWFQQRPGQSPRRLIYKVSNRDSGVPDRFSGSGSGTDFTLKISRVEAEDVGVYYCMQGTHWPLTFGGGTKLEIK
notes: human IgG1, lambda or kappa light chain; also called 447-E10
B10: Antibody No. 55 (antibody, V domains shown)
VH: QVQLVQSGAEVKKPGASVKVSCKASGYTFTSYYMHWVRQAPGQGLEWMGIINPSGGSTSYAQKFQGRVTMTRDTSTSTVYMELSSLRSEDTAVYYCARDDYGDYWGQGTLVTVSS
VL: QSALTQPASVSGSPGQSITIPCTGTSSDVGGYNYVSWYQQHPGKAPKLMIYEVSNRPSGVSNRFSGSKSGNTASLTISGLQAEDEADYYCSSYTSSSFSFGTGTKLTVL
notes: human IgG1, lambda or kappa light chain; also called 447-C08
B11: Antibody No. 42 (antibody, V domains shown)
VH: QVQLVESGGGVVQPGRSLRLSCAASGFTFSNYAMHWVRQAPGKGLEWVAVISYDGSKKYYADSVKGRFTISRDNSKNTLYLQMNSLGAEDMAVYYCAREDPRRGGIDYWGQGTLVTVSS
VL: QSVLTQPPPVSGAPGQRVTISCTGSSSNIGAGYDVHWYQQLPGTAPKLLIYGNSNRPSGVPDRFSGSKSGTSASLAITGLQAEDEADYYCQSYDSSLSGYVFGTGTKVTVL
notes: human IgG1, lambda or kappa light chain; also called 447-B06
B12: Antibody No. 48 (antibody, V domains shown)
VH: EVQLVQSGGGVVQPGRSLRLSCAASGFTFSSYAMHWVRQAPGKGLEWVAVISYDGSNKYYADSVKGRFTISRDNSKNTLYLQMNSLRAEDTAVYYCAAESAYSSSWSGLRFDPWGQGTLVTVSS
VL: B11 VL with P9S, V108L
notes: human IgG1, lambda or kappa light chain; also called 447-B08
B13: Antibody No. 45 (antibody, V domains shown)
VH: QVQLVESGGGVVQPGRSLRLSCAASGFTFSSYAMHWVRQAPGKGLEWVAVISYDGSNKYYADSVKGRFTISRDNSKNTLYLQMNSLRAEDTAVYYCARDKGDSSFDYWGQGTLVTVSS
VL: B11 VL with P9S, Y100V, T104G
notes: human IgG1, lambda or kappa light chain; also called 447-E08
B14: Antibody No. 24 (antibody, V domains shown)
VH: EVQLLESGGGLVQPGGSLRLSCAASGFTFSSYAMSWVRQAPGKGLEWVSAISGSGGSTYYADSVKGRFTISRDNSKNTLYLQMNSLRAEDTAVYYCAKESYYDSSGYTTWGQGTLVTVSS
VL: B11 VL with P9S, V108L
notes: human IgG1, lambda or kappa light chain; also called 447-C09
B15: Antibody No. 47 (antibody, V domains shown)
VH: B1 VH with G33A, K98R, D99E, F100A, S101G, D102E, A103G, F104V, I106Y, M112L
VL: B11 VL with P9S, V108L
notes: human IgG1, lambda or kappa light chain; also called 447-A08
B16: Antibody No. 43 (antibody, V domains shown)
V domain 1: QVQLVQSGAEVKKPGSSVKVSCKASGGTFSSYAISWVRQAPGQGLEWMGGIIPIFGTANYAQKSQGRVTITADESTSTAYMELSSLRSEDTAVYYCARESGSGNRIPYGMDVWGQGTMVTVSS
V domain 2: QSVLTQPPSVSGAPGQRVTISCTGSSSNIGAGYDVHWYQQLPGTAPKLLIYGNSNRPSGVPDRFSGSKSGTSASLAITGLQAEDEADYYCQSYDSSLSGPVVFGGGTQVTVL
notes: human IgG1, lambda or kappa light chain; also called 447-A07
B17: Antibody No. 51 (antibody, V domains shown)
VH: QVQLQESGGGVVQPGRSLRLSCAASGFTFSSYAMHWVRQAPGKGLEWVAVISYDGSNKYYAGSVKGRFTISRDNSKNTLYLQMNSLRAEDTAVYYCARDWRGVYFDYWGQGTLVTVSS
VL: QSALTQPASVSGSPGQSITISCTGTSSDVGGYNYVSWYQQHPGKAPKLMIYEVSNRPSGVSNRFSGSKSGNTASLTISGLQAEDEADYYCSSYTSSSTLVFGGGTKLTVL
notes: human IgG1, lambda or kappa light chain; also called 447-E05
B18: Antibody No. 39 (antibody, V domains shown)
VH: QVQLVESGGGLVQPGRSLRLSCAASGFTFDDYAMHWVRQAPGKGLEWVSGISWNSGSIGYADSVKGRFTISRDNAKNSLYLQMNSLRAEDTALYYCAKDTTWGGSYPYFDYWGQGTLVTVSS
VL: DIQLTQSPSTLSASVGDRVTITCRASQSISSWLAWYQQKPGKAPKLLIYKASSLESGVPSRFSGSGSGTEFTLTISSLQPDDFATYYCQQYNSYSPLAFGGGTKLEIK
notes: human IgG1, lambda or kappa light chain; also called 448-H05

Where a chain is given by its changes, count along the chain named.

For this experiment, the target named is T1, Perilipin epitope 6 peptide …. Description: phage display selection and ELISA on biotinylated target peptide. On the technique in general: ELISA stands for enzyme-linked immunosorbent assay.
As for B1, the binding result is listed as “binds”.

Consider B2, for which the binding result is listed as “binds”.

Take B3: the binding result was “binds”.

As to B4, the binding result was “binds”.

On to B5, for which the binding result is “binds”.

For the molecule B6, the binding result is “binds”.

Regarding B7, the binding result is reported as “binds”.

As to B8, the binding result is listed as “binds”.

Consider B9, for which the binding result is given as “binds”.

Take B10: the binding result is recorded as “binds”.

For the molecule B11, the binding result is on record as “binds”.

Turning to B12, the binding result is reported as “binds”.

Turning to B13, the binding result is “binds”.

As for B14, the binding result is on record as “binds”.

Turning to B15, the binding result is on record as “binds”.

Consider B16, for which the binding result is reported as “binds”.

B17: the binding result is recorded as “binds”.

Turning to B18, the binding result is “binds”.
